According to patent US20230406950A1 (LYVGEN BIOPHARMA, published 2023):
Read-outs that look alike come from different tables or passages of the source.

Key:
[1] = target: T1, human CD40 expressed on CHO cells (human, UniProt P25942 21-277); assay: FACS on CHO cells expressing human CD40 (MFI)
T1 construct: whole, on cells
Experimental: (§1) Anti-CD40/CD137 bi-specific antibodies were analyzed by FACS for their binding properties to human CD40 and/or human CD137 expressed on CHO cells. Briefly, cultured cells were harvested, counted and cell viability was evaluated using the Trypan Blue exclusion method. Viable cells were then adjusted to 2×10⁶ cells per mL in PBS containing 2% BSA. 100 μL of this cell suspension were further aliquoted per well into a V-bottom 96-well plate. […] After incubation for 2 hours at 4° C., cells were centrifuged (3 min, 1000×g), washed with 250 μL/well BSA-containing FACS Stain Buffer, resuspended and incubated for an additional 1 hour at 4° C. with 100 μL/well fluorochrome-conjugated anti-IgG antibody for detection of the bisepecific antibody. Cells were then washed with 250 μL/well BSA-containing FACS Stain Buffer, resuspended in 100 μL/well FACS Stain Buffer, acquired and analyzed using a FACS machine. Binding of the bispecific antibodies to human CD40 or human CD137 expressing CHO cells were evaluated and the mean fluorescence intensity is plotted in histograms or dot plots.

[2] = target: T2, human CD137 expressed on cells (human, UniProt Q07011 24-255); assay: FACS on CHO cells expressing human CD137 (MFI)
T2 construct: whole, on cells; also called 4-1BB; TNFRSF9
Experimental: as §1

[3] = target: T2, human CD137 expressed on cells; assay: FACS on CHO cells expressing human CD137 (MFI); remark: listed apart in the source
Experimental: as §1, with “Anti-GITR/CD137” for “Anti-CD40/CD137”, “GITR” for “CD40”, “1000× g),” for “1000×g),”

T1 sequence (P25942 21-277): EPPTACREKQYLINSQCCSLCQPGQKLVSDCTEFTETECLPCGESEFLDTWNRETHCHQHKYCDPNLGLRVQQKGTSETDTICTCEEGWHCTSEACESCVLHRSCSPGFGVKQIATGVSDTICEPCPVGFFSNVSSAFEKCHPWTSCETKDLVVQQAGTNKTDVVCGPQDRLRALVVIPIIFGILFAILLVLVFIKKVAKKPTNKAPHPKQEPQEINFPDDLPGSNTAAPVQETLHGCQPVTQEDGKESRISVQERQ
T2 sequence (Q07011 24-255): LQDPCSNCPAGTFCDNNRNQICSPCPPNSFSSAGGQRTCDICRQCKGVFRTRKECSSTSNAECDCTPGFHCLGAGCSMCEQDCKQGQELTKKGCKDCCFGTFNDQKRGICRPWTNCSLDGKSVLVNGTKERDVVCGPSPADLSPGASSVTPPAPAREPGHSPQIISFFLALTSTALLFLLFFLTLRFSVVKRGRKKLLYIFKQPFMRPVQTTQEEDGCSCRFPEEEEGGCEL

| binding result [1] | EC50 (read off the curve) [2] | EC50 (read off the curve) [3] | Binder |
| --- | --- | --- | --- |
| binds | ~0.04 µg/mL | – | Ly740 (bispecific antibody, human IgG1, kappa, Anti-CD40/CD137: Ly1630 heavy chain; Ly1630 light chain fused to Ly253 scFv (VL-VH)) heavy: QVQLVQSGAEVKKPGASVKVSCKASGYTFAGFEMHWVRQAPGQGLEWMGAIDPKTGGTDYNQKFKDRVTMTRDTSISTAYMELSRLRSDDTAVYYCARDLGYFDVWGQGTLVTVSSASTKGPSVFPLAPSSKSTSGGTAALGCLVKDYFPEPVTVSWNSGALTSGVHTFPAVLQSSGLYSLSSVVTVPSSSLGTQTYICNVNHKPSNTKVDKKVEPKSCDKTHTCPPCPAPELLGPSVFLFPPKPKDTLMISRTPEVTCVVVDVSHEDPEVKFNWYVDGVEVHNAKTKPREEQYNSTYRVVSVLTVLHQDWLNGKEYKCKVSNKALPAPIEKTISKAKGQPREPQVYTLPPSREEMTKNQVSLTCLVKGFYPSDIAVEWESNGQPENNYKTTPPVLDSDGSFFLYSKLTVDKSRWQQGNVFSCSVMHEALHNHYTQKSLSLSPGK light: not shown |
| binds | ~0.1 µg/mL | – | Ly743 (bispecific antibody, human IgG1, kappa, Anti-CD40/CD137: Ly253-derived heavy chain fused to Ly1630 scFv (VH-VL); Ly253 light chain) heavy: not shown light: DIQMTQSPSSVSASVGDRVTITCRASQGIYSWLAWYQQKPGKAPNLLIYTASTLQSGVPSRFSGSGSGTDFTLTISSLQPEDFATYYCQQANIFPLTFGGGTKVEIKRTVAAPSVFIFPPSDEQLKSGTASVVCLLNNFYPREAKVQWKVDNALQSGNSQESVTEQDSKDSTYSLSSTLTLSKADYEKHKVYACEVTHQGLSSPVTKSFNRGEC |
| binds | ~0.2 µg/mL | – | Ly745 (bispecific antibody, human IgG1, kappa, Anti-CD40/CD137: Ly253-derived heavy chain; Ly253 light chain fused to Ly1630 scFv (VH-VL)) heavy: not shown light: DIQMTQSPSSVSASVGDRVTITCRASQGIYSWLAWYQQKPGKAPNLLIYTASTLQSGVPSRFSGSGSGTDFTLTISSLQPEDFATYYCQQANIFPLTFGGGTKVEIKRTVAAPSVFIFPPSDEQLKSGTASVVCLLNNFYPREAKVQWKVDNALQSGNSQESVTEQDSKDSTYSLSSTLTLSKADYEKHKVYACEVTHQGLSSPVTKSFNRGECGGGGSGGGGSGGGGSGGGGSQVQLVQSGAEVKKPGASVKVSCKASGYTFAGFEMHWVRQAPGQGLEWMGAIDPKTGGTDYNQKFKDRVTMTRDTSISTAYMELSRLRSDDTAVYYCARDLGYFDVWGQGTLVTVSSGGGGSGGGGSGGGGSGGGGSDIQMTQSPSSLSASVGDRVTITCRASQDIRSNLNWYQQKPGGAVKLLIYYTSRLHSGVPSRFSGSGSGTDYTLTISSLQPEDFATYFCQQSEKLPRTFGGGTKVEIR |

The next lines start with the binder.

| Binder | binding result [1] | EC50 (read off the curve) [2] | EC50 (read off the curve) [3] |
| --- | --- | --- | --- |
| Ly741 (bispecific antibody, human IgG1, kappa, Anti-CD40/CD137: Ly1630 heavy chain; Ly1630 light chain fused to Ly253 scFv (VH-VL)) heavy: QVQLVQSGAEVKKPGASVKVSCKASGYTFAGFEMHWVRQAPGQGLEWMGAIDPKTGGTDYNQKFKDRVTMTRDTSISTAYMELSRLRSDDTAVYYCARDLGYFDVWGQGTLVTVSSASTKGPSVFPLAPSSKSTSGGTAALGCLVKDYFPEPVTVSWNSGALTSGVHTFPAVLQSSGLYSLSSVVTVPSSSLGTQTYICNVNHKPSNTKVDKKVEPKSCDKTHTCPPCPAPELLGPSVFLFPPKPKDTLMISRTPEVTCVVVDVSHEDPEVKFNWYVDGVEVHNAKTKPREEQYNSTYRVVSVLTVLHQDWLNGKEYKCKVSNKALPAPIEKTISKAKGQPREPQVYTLPPSREEMTKNQVSLTCLVKGFYPSDIAVEWESNGQPENNYKTTPPVLDSDGSFFLYSKLTVDKSRWQQGNVFSCSVMHEALHNHYTQKSLSLSPGK light: not shown | binds | ~0.04 µg/mL | – |
| Ly752 (bispecific antibody, human IgG1, kappa, Anti-GITR/CD137: TM677-derived heavy chain; TM677 light chain fused to Ly1630 scFv (VL-VH)) heavy: QVQLQESGPGLVKPSETLSLTCTVSGFSLTSYNVHWIRQPPGKGLEWIGVIWSGVRTDYNSVLKSRVTISVDTSKNQFSLKLSSVTAADTAVYYCARGTYDANYHDVMDAWGQGTMVTVSSASTKGPSVFPLAPSSKSTSGGTAALGCLVKDYFPEPVTVSWNSGALTSGVHTFPAVLQSSGLYSLSSVVTVPSSSLGTQTYICNVNHKPSNTKVDKKVEPKSCDKTHTCPPCPAPELLGPSVFLFPPKPKDTLMISRTPEVTCVVVDVSHEDPEVKFNWYVDGVEVHNAKTKPREEQYNSTYRVVSVLTVLHQDWLNGKEYKCKVSNKALPAPIEKTISKAKGQPREPQVYTLPPSREEMTKNQVSLTCLVKGFYPSDIAVEWESNGQPENNYKTTPPVLDSDGSFFLYSKLTVDKSRWQQGNVFSCSVMHEALHNHYTQKSLSLSPGK light: DTVLTQSPATLSLSPGERATLSCRASKSVRTGMHWYQQKPGQAPRLLVYGASNLESGIPARFSGSGSGTDFTLTISSLEPEDFATYFCHQSWNHFTFGQGTKLEIKRTVAAPSVFIFPPSDEQLKSGTASVVCLLNNFYPREAKVQWKVDNALQSGNSQESVTEQDSKDSTYSLSSTLTLSKADYEKHKVYACEVTHQGLSSPVTKSFNRGECGGGGSGGGGSGGGGSGGGGSDIQMTQSPSSLSASVGDRVTITCRASQDIRSNLNWYQQKPGGAVKLLIYYTSRLHSGVPSRFSGSGSGTDYTLTISSLQPEDFATYFCQQSEKLPRTFGGGTKVEIRGGGGSGGGGSGGGGSGGGGSQVQLVQSGAEVKKPGASVKVSCKASGYTFAGFEMHWVRQAPGQGLEWMGAIDPKTGGTDYNQKFKDRVTMTRDTSISTAYMELSRLRSDDTAVYYCARDLGYFDVWGQGTLVTVSS | – | – | ~0.4 µg/mL |
| Ly753 (bispecific antibody, human IgG1, kappa, Anti-GITR/CD137: TM677-derived heavy chain; TM677 light chain fused to Ly1630 scFv (VH-VL)) heavy: QVQLQESGPGLVKPSETLSLTCTVSGFSLTSYNVHWIRQPPGKGLEWIGVIWSGVRTDYNSVLKSRVTISVDTSKNQFSLKLSSVTAADTAVYYCARGTYDANYHDVMDAWGQGTMVTVSSASTKGPSVFPLAPSSKSTSGGTAALGCLVKDYFPEPVTVSWNSGALTSGVHTFPAVLQSSGLYSLSSVVTVPSSSLGTQTYICNVNHKPSNTKVDKKVEPKSCDKTHTCPPCPAPELLGPSVFLFPPKPKDTLMISRTPEVTCVVVDVSHEDPEVKFNWYVDGVEVHNAKTKPREEQYNSTYRVVSVLTVLHQDWLNGKEYKCKVSNKALPAPIEKTISKAKGQPREPQVYTLPPSREEMTKNQVSLTCLVKGFYPSDIAVEWESNGQPENNYKTTPPVLDSDGSFFLYSKLTVDKSRWQQGNVFSCSVMHEALHNHYTQKSLSLSPGK light: DTVLTQSPATLSLSPGERATLSCRASKSVRTGMHWYQQKPGQAPRLLVYGASNLESGIPARFSGSGSGTDFTLTISSLEPEDFATYFCHQSWNHFTFGQGTKLEIKRTVAAPSVFIFPPSDEQLKSGTASVVCLLNNFYPREAKVQWKVDNALQSGNSQESVTEQDSKDSTYSLSSTLTLSKADYEKHKVYACEVTHQGLSSPVTKSFNRGECGGGGSGGGGSGGGGSGGGGSQVQLVQSGAEVKKPGASVKVSCKASGYTFAGFEMHWVRQAPGQGLEWMGAIDPKTGGTDYNQKFKDRVTMTRDTSISTAYMELSRLRSDDTAVYYCARDLGYFDVWGQGTLVTVSSGGGGSGGGGSGGGGSGGGGSDIQMTQSPSSLSASVGDRVTITCRASQDIRSNLNWYQQKPGGAVKLLIYYTSRLHSGVPSRFSGSGSGTDYTLTISSLQPEDFATYFCQQSEKLPRTFGGGTKVEIR | – | – | ~0.7 µg/mL |
| Ly744 (bispecific antibody, human IgG1, kappa, Anti-CD40/CD137: Ly253-derived heavy chain; Ly253 light chain fused to Ly1630 scFv (VL-VH)) heavy: not shown light: DIQMTQSPSSVSASVGDRVTITCRASQGIYSWLAWYQQKPGKAPNLLIYTASTLQSGVPSRFSGSGSGTDFTLTISSLQPEDFATYYCQQANIFPLTFGGGTKVEIKRTVAAPSVFIFPPSDEQLKSGTASVVCLLNNFYPREAKVQWKVDNALQSGNSQESVTEQDSKDSTYSLSSTLTLSKADYEKHKVYACEVTHQGLSSPVTKSFNRGECGGGGSGGGGSGGGGSGGGGSDIQMTQSPSSLSASVGDRVTITCRASQDIRSNLNWYQQKPGGAVKLLIYYTSRLHSGVPSRFSGSGSGTDYTLTISSLQPEDFATYFCQQSEKLPRTFGGGTKVEIRGGGGSGGGGSGGGGSGGGGSQVQLVQSGAEVKKPGASVKVSCKASGYTFAGFEMHWVRQAPGQGLEWMGAIDPKTGGTDYNQKFKDRVTMTRDTSISTAYMELSRLRSDDTAVYYCARDLGYFDVWGQGTLVTVSS | binds | ~0.1 µg/mL | – |
| Ly742 (bispecific antibody, human IgG1, kappa, Anti-CD40/CD137: Ly253-derived heavy chain fused to Ly1630 scFv (VL-VH); Ly253 light chain) heavy: not shown light: DIQMTQSPSSVSASVGDRVTITCRASQGIYSWLAWYQQKPGKAPNLLIYTASTLQSGVPSRFSGSGSGTDFTLTISSLQPEDFATYYCQQANIFPLTFGGGTKVEIKRTVAAPSVFIFPPSDEQLKSGTASVVCLLNNFYPREAKVQWKVDNALQSGNSQESVTEQDSKDSTYSLSSTLTLSKADYEKHKVYACEVTHQGLSSPVTKSFNRGEC | binds | ~0.07 µg/mL | – |
